Measurements taken from paper PMC11555649, “Yop1 stability and membrane curvature generation propensity are controlled by its oligomerisation interface” (Biochemical Journal, 2024).

B1: Yop1 (wildtype, full length, Saccharomyces cerevisiae) (natural protein, UniProt Q12402 1-180, looked up)
chain: MSEYASSIHSQMKQFDTKYSGNRILQQLENKTNLPKSYLVAGLGFAYLLLIFINVGGVGEILSNFAGFVLPAYLSLVALKTPTSTDDTQLLTYWIVFSFLSVIEFWSKAILYLIPFYWFLKTVFLIYIALPQTGGARMIYQKIVAPLTDRYILRDVSKTEKDEIRASVNEASKATGASVH
notes: Yop1, Saccharomyces cerevisiae, UniProt Q12402, full length gene in pCold I; Integral membrane protein, kept in DDM detergent micelles; tags removed with TEV protease; also called WT; wildtype Yop1; source: E. coli C43, purified (Strep-Tactin, TEV cleavage, His-tag resin flow-through, SEC) in DDM; not shown: (His)9, N-terminal, cleaved; Twin-Strep-tag, N-terminal, cleaved
B2: Yop1 A72E variant (natural protein, Saccharomyces cerevisiae, UniProt Q12402 1-180, looked up)
chain: MSEYASSIHSQMKQFDTKYSGNRILQQLENKTNLPKSYLVAGLGFAYLLLIFINVGGVGEILSNFAGFVLPEYLSLVALKTPTSTDDTQLLTYWIVFSFLSVIEFWSKAILYLIPFYWFLKTVFLIYIALPQTGGARMIYQKIVAPLTDRYILRDVSKTEKDEIRASVNEASKATGASVH
notes: Yop1, Saccharomyces cerevisiae, UniProt Q12402, full length gene in pCold I, with A72E; Homologous to the REEP1 SPG31 mutation A20E; source: E. coli C43, purified (Strep-Tactin, TEV cleavage, His-tag resin flow-through, SEC) in DDM; not shown: (His)9, N-terminal, cleaved; Twin-Strep-tag, N-terminal, cleaved
B3: Yop1 P71L variant (natural protein, Saccharomyces cerevisiae, UniProt Q12402 1-180, looked up)
chain: MSEYASSIHSQMKQFDTKYSGNRILQQLENKTNLPKSYLVAGLGFAYLLLIFINVGGVGEILSNFAGFVLLAYLSLVALKTPTSTDDTQLLTYWIVFSFLSVIEFWSKAILYLIPFYWFLKTVFLIYIALPQTGGARMIYQKIVAPLTDRYILRDVSKTEKDEIRASVNEASKATGASVH
notes: Yop1, Saccharomyces cerevisiae, UniProt Q12402, full length gene in pCold I, with P71L; Homologous to the REEP1 SPG31 mutation P19L; prone to aggregation in preparative SEC; source: E. coli C43, purified (Strep-Tactin, TEV cleavage, His-tag resin flow-through, SEC) in DDM; not shown: (His)9, N-terminal, cleaved; Twin-Strep-tag, N-terminal, cleaved
B4: Yop1 S75F variant (natural protein, Saccharomyces cerevisiae, UniProt Q12402 1-180, looked up)
chain: MSEYASSIHSQMKQFDTKYSGNRILQQLENKTNLPKSYLVAGLGFAYLLLIFINVGGVGEILSNFAGFVLPAYLFLVALKTPTSTDDTQLLTYWIVFSFLSVIEFWSKAILYLIPFYWFLKTVFLIYIALPQTGGARMIYQKIVAPLTDRYILRDVSKTEKDEIRASVNEASKATGASVH
notes: Yop1, Saccharomyces cerevisiae, UniProt Q12402, full length gene in pCold I, with S75F; Homologous to the REEP1 SPG31 mutation S23F; source: E. coli C43, purified (Strep-Tactin, TEV cleavage, His-tag resin flow-through, SEC) in DDM; not shown: (His)9, N-terminal, cleaved; Twin-Strep-tag, N-terminal, cleaved

What was measured:
[1] = molecular target: the molecule itself; assay: SEC-MALS; self-association; 100 µl at 1-1.4 mg/ml on Superdex 200 10/300GL; 20 mM HEPES pH 7.5, 150 mM NaCl, 5% glycerol; protein in DDM micelles, protein and detergent masses separated
[2] = molecular target: the molecule itself; assay: native gel or EMSA; Blue native PAGE, NativePAGE 4-16% Bis-Tris gel, ~0.8 mg/ml protein in DDM micelles, 150 V, 4°C; self-association

| Protein | stoichiometry N [1] | stoichiometry N [2] |
| --- | --- | --- |
| B1 | 2 |  |
| B2 | 2 |  |
| B3 |  | 2 |
| B4 |  | 2 |
